From patent US20080058263A1 (published 2008)

Experiments:
Test in all cases: receptor-Fc IP
VEGFR-1-Fc = target: T1, VEGFR-1-Fc (UniProt P17948 27-338)
T1 construct: domain: first three Ig domains; expressed in Drosophila S2 cells, purified on Protein A sepharose; also called VEGFR-1-Fc fusion protein; not shown: Fc fragment from the Signal-pIgPlus vector
Method in brief: (§1)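 fusion protein at 400 ng/ml in an IP mix (PBS, 1.5% BSA, 0.06% Tween 20, 3 μg/ml heparin) was combined with sample supernatant at a 1:2 ratio. Bound ligand captured by immunoprecipitation with pentahistidine antibody.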

VEGFR-2-Fc = target: T2, VEGFR-2-Fc (UniProt P35968 20-322)
T2 construct: domain: first 3 Ig domains; conditioned supernatant of 293T cells; also called VEGFR-2-Fc fusion protein; not shown: Fc fragment of the pIg vector
T2 sequence (P35968 20-322): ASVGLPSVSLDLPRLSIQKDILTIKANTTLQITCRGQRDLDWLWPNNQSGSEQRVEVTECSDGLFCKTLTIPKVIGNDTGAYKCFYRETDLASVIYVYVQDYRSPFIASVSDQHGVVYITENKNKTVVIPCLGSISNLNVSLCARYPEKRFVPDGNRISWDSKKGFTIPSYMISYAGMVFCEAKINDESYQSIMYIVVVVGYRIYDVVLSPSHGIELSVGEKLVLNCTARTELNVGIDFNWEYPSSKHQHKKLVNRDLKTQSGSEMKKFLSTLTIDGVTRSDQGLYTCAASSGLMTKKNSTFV
Method in brief: as §1

VEGFR-3-Fc = target: T3, VEGFR-3-Fc (UniProt P35916 25-328)
T3 construct: domain: first three Ig domains; conditioned supernatant of 293T cells; also called VEGFR-3-Fc fusion protein; not shown: Fc fragment of the pIg vector
T3 sequence (looked up): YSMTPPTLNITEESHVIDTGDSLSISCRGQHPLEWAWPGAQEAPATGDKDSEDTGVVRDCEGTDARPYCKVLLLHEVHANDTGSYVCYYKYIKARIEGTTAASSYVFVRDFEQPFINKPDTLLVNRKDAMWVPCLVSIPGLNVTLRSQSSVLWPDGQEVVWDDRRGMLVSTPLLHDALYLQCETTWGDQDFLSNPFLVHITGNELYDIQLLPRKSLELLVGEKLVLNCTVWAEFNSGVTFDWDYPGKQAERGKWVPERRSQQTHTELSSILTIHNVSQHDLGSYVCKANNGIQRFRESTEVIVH
Method in brief: as §1

Measured: binding result

T1 sequence (P17948 27-338): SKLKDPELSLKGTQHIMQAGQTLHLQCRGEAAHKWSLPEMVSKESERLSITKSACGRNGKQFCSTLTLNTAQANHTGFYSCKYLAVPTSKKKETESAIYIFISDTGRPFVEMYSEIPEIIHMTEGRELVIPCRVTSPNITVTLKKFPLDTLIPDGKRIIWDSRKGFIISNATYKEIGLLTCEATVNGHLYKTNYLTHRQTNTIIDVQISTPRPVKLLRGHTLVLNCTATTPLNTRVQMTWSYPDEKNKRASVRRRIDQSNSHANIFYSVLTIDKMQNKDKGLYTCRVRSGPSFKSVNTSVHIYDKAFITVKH

B1: 34-14 (ligand)
chain: GQNHHEVVKSIDNEWRKTQCMPIETLVDIFQEFGVATNTFFKPSCVPLMRCGGCCNDEGLECMNTSTSYLSKTLFEITVPLSQGPKPVTISFANHTSCRCMSKLD
no binding: all assays above

B2: 34-15 (ligand)
chain: GQNHHEVVKSIDNEWRKTQCMPIETLVDIFQEFGVATNTFFKPSCVPLMRCGGCCNSEGLQCVPTEESNITMQIMRITVPLSQGPKPVTISFANHTSCRCMSKLD
no binding: all assays above

B3: 41-6 (ligand)
chain: AHYNTEILKFMDVYQRSYCHPREVCIDVGKEYPDEIEYIFKPSCVPLMRCGGCCNDEGLECMNTSTSYLSKTLFEIKPHQGQHIGEMSFANHTSCRCMSKLD
no binding: all assays above

B4: 41-9 (ligand)
chain: AHYNTEILKFMDVYQRSYCHPREVCIDVGKEYPDEIEYIFKPSCVPLMRCGGCCNDEGLECVPTEESNITMQIMRITVPLSQGPKPVTISFLQHNKCECRPKKD
no binding: all assays above

B5: 41-11 (ligand)
chain: AHYNTEILKFMDVYQRSYCHPREVCIDVGKEYPDEIEYIFKPSCVPLMRCGGCCNSEGLQCVPTEESNITMQIMRITVPLSQGPKPVTISFLQHNKCECRPKKD
no binding: all assays above

B6: 21-3 (ligand)
chain: AHYNTEILKSIDNEWRKTQCMPREVCIDVGKEYPDEIEYIFKPSCVPLMRCGGCCNSEGLQCVPTEESNITMQIMRIKPHQGQHIGEMSFLQHNKCECRPKKD
no binding: all assays above

B7: 41-14 (ligand)
chain: AHYNTEILKFMDVYQRSYCHPREVCIDVGKEYPDEIEYIFKPSCVPLMRCGGCCNDEGLECMNTSTSYLSKTLFEITVPLSQGPKPVTISFANHTSCRCMSKLD
no binding: all assays above

B8: 41-16 (ligand)
chain: AHYNTEILKFMDVYQRSYCHPREVCIDVGKEYPDEIEYIFKPSCVPLMRCGGCCNSEGLQCMNTSTSYLSKTLFEITVPLSQGPKPVTISFANHTSCRCMSKLD
no binding: all assays above

B9: 42-1 (ligand)
chain: AHYNTEILKFMDVYQRSYCHPREVCIDVGKEFGVATNTFFKPPCVSVYRCGGCCNDEGLECVPTEESNITMQIMRIKPHQGQHIGEMSFLQHNKCECRPKKD
no binding: all assays above

B10: 42-6 (ligand)
chain: AHYNTEILKFMDVYQRSYCHPREVCIDVGKEFGVATNTFFKPPCVSVYRCGGCCNDEGLECMNTSTSYLSKTLFEIKPHQGQHIGEMSFANHTSCRCMSKLD
no binding: all assays above

B11: 42-8 (ligand)
chain: AHYNTEILKFMDVYQRSYCHPREVCIDVGKEFGVATNTFFKPPCVSVYRCGGCCNSEGLQCMNTSTSYLSKTLFEIKPHQGQHIGEMSFANHTSCRCMSKLD
no binding: all assays above

B12: 42-9 (ligand)
chain: AHYNTEILKFMDVYQRSYCHPREVCIDVGKEFGVATNTFFKPPCVSVYRCGGCCNDEGLECVPTEESNITMQIMRITVPLSQGPKPVTISFLQHNKCECRPKKD
no binding: all assays above

B13: 42-10 (ligand)
chain: AHYNTEILKFMDVYQRSYCHPREVCIDVGKEFGVATNTFFKPPCVSVYRCGGCCNDEGLECMNTSTSYLSKTLFEITVPLSQGPKPVTISFLQHNKCECRPKKD
no binding: all assays above

B14: 21-4 (ligand)
chain: AHYNTEILKSIDNEWRKTQCMPREVCIDVGKEYPDEIEYIFKPSCVPLMRCGGCCNSEGLQCMNTSTSYLSKTLFEIKPHQGQHIGEMSFLQHNKCECRPKKD
no binding: all assays above

B15: 42-11 (ligand)
chain: AHYNTEILKFMDVYQRSYCHPREVCIDVGKEFGVATNTFFKPPCVSVYRCGGCCNSEGLQCVPTEESNITMQIMRITVPLSQGPKPVTISFLQHNKCECRPKKD
no binding: all assays above

B16: 42-12 (ligand)
chain: AHYNTEILKFMDVYQRSYCHPREVCIDVGKEFGVATNTFFKPPCVSVYRCGGCCNSEGLQCMNTSTSYLSKTLFEITVPLSQGPKPVTISFLQHNKCECRPKKD
no binding: all assays above

B17: 42-13 (ligand)
chain: AHYNTEILKFMDVYQRSYCHPREVCIDVGKEFGVATNTFFKPPCVSVYRCGGCCNDEGLECVPTEESNITMQIMRITVPLSQGPKPVTISFANHTSCRCMSKLD
no binding: all assays above

B18: 42-15 (ligand)
chain: AHYNTEILKFMDVYQRSYCHPREVCIDVGKEFGVATNTFFKPPCVSVYRCGGCCNSEGLQCVPTEESNITMQIMRITVPLSQGPKPVTISFANHTSCRCMSKLD
no binding: all assays above

B19: 43-9 (ligand)
chain: AHYNTEILKFMDVYQRSYCHPREVCIDVGKEYPDEIEYIFKPPCVSVYRCGGCCNDEGLECVPTEESNITMQIMRITVPLSQGPKPVTISFLQHNKCECRPKKD
no binding: all assays above

B20: 43-11 (ligand)
chain: AHYNTEILKFMDVYQRSYCHPREVCIDVGKEYPDEIEYIFKPPCVSVYRCGGCCNSEGLQCVPTEESNITMQIMRITVPLSQGPKPVTISFLQHNKCECRPKKD
no binding: all assays above

B21: 43-14 (ligand)
chain: AHYNTEILKFMDVYQRSYCHPREVCIDVGKEYPDEIEYIFKPPCVSVYRCGGCCNDEGLECMNTSTSYLSKTLFEITVPLSQGPKPVTISFANHTSCRCMSKLD
no binding: all assays above

B22: 43-16 (ligand)
chain: AHYNTEILKFMDVYQRSYCHPREVCIDVGKEYPDEIEYIFKPPCVSVYRCGGCCNSEGLQCMNTSTSYLSKTLFEITVPLSQGPKPVTISFANHTSCRCMSKLD
no binding: all assays above

B23: 44-2 (ligand)
chain: AHYNTEILKFMDVYQRSYCHPREVCIDVGKEFGVATNTFFKPSCVPLMRCGGCCNDEGLECMNTSTSYLSKTLFEIKPHQGQHIGEMSFLQHNKCECRPKKD
no binding: all assays above

B24: 44-4 (ligand)
chain: AHYNTEILKFMDVYQRSYCHPREVCIDVGKEFGVATNTFFKPSCVPLMRCGGCCNSEGLQCMNTSTSYLSKTLFEIKPHQGQHIGEMSFLQHNKCECRPKKD
no binding: all assays above

B25: 44-8 (ligand)
chain: AHYNTEILKFMDVYQRSYCHPREVCIDVGKEFGVATNTFFKPSCVPLMRCGGCCNSEGLQCMNTSTSYLSKTLFEIKPHQGQHIGEMSFANHTSCRCMSKLD
no binding: all assays above
